Test results as given in paper PMC4213023, “Structural Basis of Substrate Selectivity of E. coli Prolidase” (PLoS ONE, 2014).
Numbering of substitutions follows the chain as printed. Numbers in names are those of the source.

Assays:
[1] = biological target: Escherichia coli prolidase PepQ, wild type (Escherichia coli) (UniProt P21165)
[2] = biological target: Escherichia coli prolidase PepQ R370E (Escherichia coli) (UniProt P21165)
[3] = tested on: C[C@H](N)C(=O)N1CCC[C@H]1C(=O)O; assay: purified protein; assay type: biochemical, Escherichia coli; conditions: 50 mM Tris pH 8, 20 mM Mg(OAc)2, 25°C, 1 µM AlaDH and 2 mM NAD+ (coupling)
[4] = tested on: C[C@H](N)C(=O)N1CCC[C@H]1C(N)=O; assay: purified protein; assay type: biochemical, Escherichia coli; conditions: 50 mM Tris pH 8, 20 mM Mg(OAc)2, 25°C, 1 µM AlaDH and 2 mM NAD+ (coupling)
[5] = biological target: the molecule itself; assay: crystal structure; PepQ 12 mg/ml in 50 mM Tris pH 7.4, 5 mM MgCl2, 5 mM DTT; hanging drop at 4°C, 20% PEG MME 5000, 0.1 M Bis-Tris pH 6.5; one dimer in the asymmetric unit
[6] = biological target: the molecule itself; assay: SEC; analytical gel filtration, Superose 6, PepQ 10 nM in 50 mM Tris pH 7.4, 50 mM KOAc, 10 mM Mg(OAc)2, 2 mM DTT, 0.4 mL/min, tryptophan fluorescence detection

AlaPro-CONH2 substrate dipeptide
Km (mM) of hydrolysis of the dipeptide, coupled to AlaDH/NAD+ oxidation of alanine, 25°C [1]: 6.6 mM | Km (mM) of hydrolysis of the dipeptide, coupled to AlaDH/NAD+ oxidation of alanine, 25°C [2]: 4.7 mM

E. coli PepQ (Escherichia coli K-12)
Km [3]: 1.2 ± 0.1 mM | kcat [3]: 139 ± 2.5 s⁻¹ | kcat/Km [3]: 120000 M⁻¹ s⁻¹ | Km [4]: 6.6 ± 0.5 mM | kcat [4]: 80.7 ± 19.7 s⁻¹ | kcat/Km [4]: 12000 M⁻¹ s⁻¹

AlaPro-COOH substrate dipeptide
Km (mM) of hydrolysis of the dipeptide, coupled to AlaDH/NAD+ oxidation of alanine, 25°C [1]: 1.2 mM | Km (mM) of hydrolysis of the dipeptide, coupled to AlaDH/NAD+ oxidation of alanine, 25°C [2]: 127 mM

E. coli PepQ (Escherichia coli K-12; R370E)
Km [4]: 4.7 ± 0.2 mM | kcat [4]: 1.1 ± 0.4 s⁻¹ | kcat/Km [4]: 230 M⁻¹ s⁻¹

B1: Escherichia coli prolidase PepQ, wild type (enzyme, UniProt P21165 1-443, looked up)
chain: MESLASLYKNHIATLQERTRDALARFKLDALLIHSGELFNVFLDDHPYPFKVNPQFKAWVPVTQVPNCWLLVDGVNKPKLWFYLPVDYWHNVEPLPTSFWTEDVEVIALPKADGIGSLLPAARGNIGYIGPVPERALQLGIEASNINPKGVIDYLHYYRSFKTEYELACMREAQKMAVNGHRAAEEAFRSGMSEFDINIAYLTATGHRDTDVPYSNIVALNEHAAVLHYTKLDHQAPEEMRSFLLDAGAEYNGYAADLTRTWSAKSDNDYAQLVKDVNDEQLALIATMKAGVSYVDYHIQFHQRIAKLLRKHQIITDMSEEAMVENDLTGPFMPHGIGHPLGLQVHDVAGFMQDDSGTHLAAPAKYPYLRCTRILQPGMVLTIEPGIYFIESLLAPWREGQFSKHFNWQKIEALKPFGGIRIEDNVVIHENNVENMTRDLKLA
notes: E. coli PepQ (prolidase), gene PCR amplified from chromosomal E. coli DNA; Cloned NdeI/XhoI into pET21a; Two Mg(II) ions per active site in the crystal; also called E. coli PepQ; WT; source: E. coli BL21[DE3], pET21a, purified (fast-flow Q anion exchange, phenyl-sepharose, ammonium sulfate precipitation)
stoichiometry N [5]: 2

B2: Escherichia coli prolidase PepQ R370E (enzyme, UniProt P21165 1-443, looked up)
chain: B1 chain with R370E
notes: E. coli PepQ (prolidase) with R370E, made by site-directed mutagenesis of the wild-type construct (domains of the parent printed as 1-159 and 160-443); Same construct as m1 apart from R370E; PDB 4QR8 is the wild-type parent; also called R370E PepQ; charge-reversed mutant of PepQ; source: E. coli BL21[DE3], pET21a, purified following the protocols used for the wild-type enzyme
binding result [6]: binds
